Columns and labels:
HLA-B*40:01 = experiment: IEDB peptide-MHC binding, purified MHC/competitive/radioactivity; filed as Kd, often an IC50 or EC50 that approximates it; ≥ and ≤ were set here for values at or beyond the usual limits of such assays
HLA-B*44:03 = experiment: as above
HLA-B*44:02 = experiment: as above
HLA-A*24:02 = experiment: as above
HLA-A*30:02 = experiment: as above; settings: source organism: SARS coronavirus Tor2
HLA-A*29:02 = experiment: as above
HLA-A*23:01 = experiment: as above
HLA-A*01:01 [1] = experiment: as above
HLA-A*26:01 = experiment: as above; settings: source organism: SARS coronavirus Tor2
HLA-A*11:01 = experiment: IEDB peptide-MHC binding, purified MHC/direct/fluorescence; filed as Kd, often an IC50 or EC50 that approximates it; ≥ and ≤ were set here for values at or beyond the usual limits of such assays; settings: source organism: SARS-CoV1
HLA-A*03:01 = experiment: as above; settings: source organism: SARS-CoV1
HLA-A*01:01 [2] = experiment: as above; settings: source organism: SARS-CoV1
HLA-B*58:01 = experiment: as above; settings: source organism: SARS-CoV1
HLA-B*15:01 [3] = experiment: IEDB peptide-MHC binding, purified MHC/competitive/radioactivity; filed as Kd, often an IC50 or EC50 that approximates it; ≥ and ≤ were set here for values at or beyond the usual limits of such assays
HLA-B*53:01 = experiment: as above
HLA-B*15:01 [4] = experiment: IEDB peptide-MHC binding, purified MHC/direct/fluorescence; filed as Kd, often an IC50 or EC50 that approximates it; ≥ and ≤ were set here for values at or beyond the usual limits of such assays; settings: source organism: Mammarenavirus lassaense
[5] = source organism: Dengue virus 4 Philippines/H241/1956
[6] = source organism: Dengue virus 1 Brazil/97-11/1997
[7] = source organism: Dengue virus 3 Martinique/1243/1999
[8] = source organism: SARS coronavirus Tor2
[9] = source organism: Dengue virus 2 Jamaica/1409/1983
[10] = source organism: Mammarenavirus lassaense
[11] = source organism: Mammarenavirus whitewaterense
[12] = source organism: Vaccinia virus WR

Q: With GEFRLRGEQR as the sequence, how does the Kd (HLA-B*40:01; [5]) read?
A: 1400 nM

Q: GEKALKLSW was tested. Which Kd (HLA-B*44:03; [6]) did it give?
A: 40.2 nM

Q: And the Kd (HLA-B*44:02; [6])?
A: 39.7 nM

Q: For GESNIVIGI, which Kd (HLA-B*44:03; [7]) is on record?
A: 5.95 nM

Q: And the Kd (HLA-B*40:01; [7])?
A: 2.36 nM

Q: And the Kd (HLA-B*44:02; [7])?
A: 10.8 nM

Q: What does the source list for GLAAEWVLAY?
A: Kd (HLA-A*24:02; [8]): ≥ 70300 nM; Kd (HLA-A*30:02): 858 nM; Kd (HLA-A*29:02; [8]): 69.4 nM; Kd (HLA-A*23:01; [8]): ≥ 70000 nM; Kd (HLA-A*01:01 [1]; [8]): 466 nM; Kd (HLA-A*26:01): 363 nM

Q: Which results are given for GTDSGFAAY?
A: Kd (HLA-A*11:01): 103 nM; Kd (HLA-A*03:01): 714 nM; Kd (HLA-A*01:01 [2]): 13 nM; Kd (HLA-B*58:01): 11600 nM; Kd (HLA-A*24:02; [8]): ≥ 77600 nM; Kd (HLA-A*30:02): 15.7 nM; Kd (HLA-A*29:02; [8]): 52.9 nM; Kd (HLA-A*23:01; [8]): ≥ 77800 nM; Kd (HLA-A*26:01): 2350 nM

Q: How did the Kd (HLA-B*44:03; [5]) turn out when HERGRPLLF was run?
A: 1000 nM

Q: Which Kd (HLA-B*44:03; [5]) does the source give for HETGRLEPSW here?
A: 188 nM

Q: And the Kd (HLA-B*44:02; [5])?
A: ≥ 70200 nM

Q: IGKALHQVF was tested. Which Kd (HLA-B*15:01 [3]; [9]) did it give?
A: 374 nM

Q: For IPQWEPSKGW, which Kd (HLA-B*53:01; [6]) is on record?
A: 90 nM

Q: IQNKLSSTF was tested. Which Kd (HLA-B*15:01 [4]) did it give?
A: 24 nM

Q: What about the Kd (HLA-A*24:02; [10]) of the same sequence?
A: 272 nM

Q: What about the Kd (HLA-A*29:02; [10]) of the same sequence?
A: ≥ 35000 nM

Q: And the Kd (HLA-A*23:01; [10])?
A: 345 nM

Q: IQPFLALGF was tested. Which Kd (HLA-B*15:01 [3]; [7]) did it give?
A: 16.5 nM

Q: IYQPESQKF was tested. Which Kd (HLA-A*24:02; [11]) did it give?
A: 33.5 nM

Q: And the Kd (HLA-A*29:02; [11])?
A: 412 nM

Q: What about the Kd (HLA-A*23:01; [11]) of the same sequence?
A: 53.4 nM

Q: Which Kd (HLA-A*24:02; [5]) does the source give for IYVILTILTI here?
A: 48.6 nM

Q: And the Kd (HLA-A*23:01; [5])?
A: 11.8 nM

Q: With KEENMVKSLV as the sequence, how does the Kd (HLA-B*40:01; [7]) read?
A: 243 nM

Q: For KEFASGRKSI, which Kd (HLA-B*40:01; [5]) is on record?
A: 111 nM

Q: With KEGTFHTMW as the sequence, how does the Kd (HLA-B*44:03; [9]) read?
A: 47 nM

Q: What about the Kd (HLA-B*44:02; [9]) of the same sequence?
A: 102 nM

Q: Which Kd (HLA-B*15:01 [3]; [12]) does the source give for KGCKLTETM here?
A: 1250 nM

Q: KIKHKGMSF was tested. Which Kd (HLA-B*15:01 [3]; [12]) did it give?
A: 47.2 nM

Q: Which Kd (HLA-B*40:01; source organism: Dengue virus 1 Singapore/S275/1990) does the source give for LETPNLAERV here?
A: 1010 nM

Q: With LIDGISLGL as the sequence, how does the Kd (HLA-A*01:01 [1]; source organism: Dengue virus 4 Dominica/814669/1981) read?
A: 10400 nM

Q: LIGLTSRATW was tested. Which Kd (HLA-B*53:01; [9]) did it give?
A: 459 nM

Q: How did the Kd (HLA-A*24:02; [8]) turn out when LMANLAPHL was run?
A: ≥ 31200 nM

Q: What about the Kd (HLA-A*30:02) of the same sequence?
A: 12000 nM

Q: What about the Kd (HLA-A*29:02; [8]) of the same sequence?
A: 3650 nM

Q: What about the Kd (HLA-A*23:01; [8]) of the same sequence?
A: 11800 nM

Q: What about the Kd (HLA-A*01:01 [1]; [8]) of the same sequence?
A: 6080 nM

Q: What about the Kd (HLA-A*26:01) of the same sequence?
A: ≥ 77900 nM

Q: With LPEEQDQNY as the sequence, how does the Kd (HLA-B*53:01; [7]) read?
A: 1520 nM

— the Immune Epitope Database (IEDB)
